Key:
Assay type in all cases: biochemical
[1] = Synthesis of N-caprinoyl-amino acid derivative, N-caprinoyl-D-amino acid and N-caprinoyl-peptide using purified acylamino acid synthetase, UPLC-MS detection; design: key: +: Detected; −: Not detected; details: +ATP
Summary of the method: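 Purified enzyme (50 μg/mL) was incubated with 5 mM sodium caprate, 5 mM amino acid derivative, D-amino acid or peptide, 10 mM ATP, 10 mM MgCl2 and 1 mM DTT in 50 mM Tris-HCl, pH 8.0, for 24 h at 25 °C. After acidic methanol stop, UPLC-MS looked for the mass of the N-caprinoyl product.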

[2] = Synthesis of N-acylamino acids from various fatty acids using purified acylamino acid synthetase, UPLC-MS detection; design: key: +: Detected; −: Not detected
Summary of the method: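 Purified enzyme (200 μg/mL) with 5 mM amino acid, 5 mM sodium fatty acid (3 mM palmitate or stearate, plus 10% methanol), 10 mM ATP, 10 mM MgCl2, 1 mM DTT in 50 mM Tris-HCl pH 8.0, shaken 24 h at 25 °C. Amino acid varied by enzyme; product mass detected by UPLC-MS (ESI-negative).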

[3] = Analysis of ATP dependency of acylamino acid synthetase; details: Gly and sodium caprate
Method: 0.25 mL of a reaction solution containing 50 mM Tris-HCl, 5 mM amino acid, 5 mM sodium caprate, 10 mM or 0 mM ATP, 10 mM MgCl2, 1 mM DTT, 50 μg of the purified enzyme, pH 8.0 was incubated at 25° C. for 24 hours. As the amino acid, L-Asp and Gly were used in AtGH3-6 and CfHP, respectively. After completion of the reaction, 0.8 mL of the reaction stop solution (1% (v/v) phosphoric acid, 75% (v/v) methanol) was added to 0.2 mL of the reaction solution, and the mixture was filtrated through the filter followed by being subjected to the UPLC-MS analysis to quantify a produced N-caprinoylamino acid by detection at UV 210 nm. The condition for the UPLC-MS analysis is as described in Example 2. As a result of the analysis, 3.8 mM and […] of the N-caprinoylamino acids were detected in AtGH3-6 and CfHP, respectively in the presence of ATP. However, in the absence of ATP, no signal of the molecular weight corresponding to the N-caprinoylamino acid was detected when any of AtGH3-6 and CfHP was used.

B1: CfHP: hypothetical protein from Cystobacter fuscus (GH3 protein), His-tagged (protein, listed as Cystobacter fuscus)
chain: MQAAGRRDKQRFIEQTRHVARVNVDTLRAILQHNRDTDFGRRHGFASLRTVEDFQRALPVSTYEPFRPYMERIARGEQNVLTADRVEYLGITSGTTGQRKLLPVSRPHLENMRRTMMIGRAVVTEKVPAARRPSRGMILMNAVLRERSEGGLLTGALTAISTHSMGRAASFAFTSPPEAFRLRKHADALYLHLLFGLRERELGTLMAPFASGLLDMVHLLERRGADLVDDIARGVLRPELDLEPEQRRLLQSRLLPDPERAREVSQALEQGPHGLLRRLWPRLAYVSSITGASFSLYTRQLTPYLEGVPLSAASYVSTEGILGVPLELEQAVYCLMVGMAFFEFIPERELDAESPTTLLPEQLVEGEAYEVVLTTQAGLYRYRLGDVVRIVGRYHEAPLMEFLYRRGALLNLMGEKTSEHAARLALEQALATEGLLPADYSVVEETETLPGRYALFVELQEGARPQGAPEQLSRALEEALCRTNPFYEVIRRSERLGAAQLHRVEPGTFQALRDVLVQRGASPTQVKVPRVVRDAELQGLLRQRRVTG
modifications: His-tag
notes: hypothetical protein from Cystobacter fuscus (GH3 protein), His-tagged
signal of molecular weight corresponding to N-caprinoyl compound ([1]; substrates Carnosine and sodium caprate): + | signal of molecular weight corresponding to N-caprinoyl compound ([1]; substrates D-Ala and sodium caprate): + | signal of molecular weight corresponding to N-caprinoyl compound ([1]; substrates D-Asp and sodium caprate): + | signal of molecular weight corresponding to N-caprinoyl compound ([1]; substrates D-Cys and sodium caprate): + | signal of molecular weight corresponding to N-caprinoyl compound ([1]; substrates D-Glu and sodium caprate): + | signal of molecular weight corresponding to N-caprinoyl compound ([1]; substrates D-Ile and sodium caprate): + | signal of molecular weight corresponding to N-caprinoyl compound ([1]; substrates D-Lys and sodium caprate): + | signal of molecular weight corresponding to N-caprinoyl compound ([1]; substrates L-Asp-L-Phe and sodium caprate): + | signal of molecular weight corresponding to N-caprinoyl compound ([1]; substrates L-Gly-L-Gly and sodium caprate): + | signal of molecular weight corresponding to N-caprinoyl compound ([1]; substrates Sarcosine and sodium caprate): + | signal of molecular weight corresponding to N-caprinoyl compound ([1]; substrates Taurine and sodium caprate): + | signal of molecular weight corresponding to N-acylamino acid ([2]; substrates Gly and Capric acid): + | signal of molecular weight corresponding to N-acylamino acid ([2]; substrates Gly and Caproic acid): + | signal of molecular weight corresponding to N-acylamino acid ([2]; substrates Gly and Caprylic acid): + | signal of molecular weight corresponding to N-acylamino acid ([2]; substrates Gly and Lauric acid): + | signal of molecular weight corresponding to N-acylamino acid ([2]; substrates Gly and Linoleic acid): − | signal of molecular weight corresponding to N-acylamino acid ([2]; substrates Gly and Palmitic acid): + | signal of molecular weight corresponding to N-acylamino acid ([2]; substrates Gly and myristic acid): + | signal of molecular weight corresponding to N-caprinoyl amino acid ([3]; in the absence of ATP): no signal | N-caprinoylamino acid detected ([3]; in the presence of ATP (10 mM), UV 210 nm): 5.2 mM

Source: patent publication US12281340B2, “Method of producing N-acyl-amino group-containing compound” (AJINOMOTO CO., INC., priority 2018, dated 2025)
